Laboratory results as given in the supplement of paper PMC9876800.

Tested on: peptide library, one residue held at a place counted from the S/T acceptor
Experiment: relative phosphorylation of the sub-library (ratio to the mean residue at this position); higher = residue favoured
Details: human
Outline: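 Relative sub-library phosphorylation, a ratio to the mean residue at that position, was obtained by phosphorimaging and densitometry of spots on streptavidin membranes. Before capture, purified recombinant kinases were incubated for 90 min under kinase-specific conditions with 50 μM biotinylated degenerate peptide sub-libraries and 50 μM ATP spiked with γ-32P-ATP. Each sub-library fixed one residue at one position around a central Ser/Thr.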

MAP3K6, construct: aa620-950, sequence (O95382 620-950, looked up): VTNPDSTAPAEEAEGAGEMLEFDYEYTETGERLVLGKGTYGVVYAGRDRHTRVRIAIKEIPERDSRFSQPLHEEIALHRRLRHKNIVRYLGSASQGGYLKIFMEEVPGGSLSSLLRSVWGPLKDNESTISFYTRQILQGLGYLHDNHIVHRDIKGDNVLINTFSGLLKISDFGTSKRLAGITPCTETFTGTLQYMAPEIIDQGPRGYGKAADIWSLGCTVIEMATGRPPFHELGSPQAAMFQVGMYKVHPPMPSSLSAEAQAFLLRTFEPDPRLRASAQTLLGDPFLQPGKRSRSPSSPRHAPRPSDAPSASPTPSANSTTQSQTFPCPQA
HIPK1, construct: aa158-555, sequence (Q86Z02 158-555, looked up): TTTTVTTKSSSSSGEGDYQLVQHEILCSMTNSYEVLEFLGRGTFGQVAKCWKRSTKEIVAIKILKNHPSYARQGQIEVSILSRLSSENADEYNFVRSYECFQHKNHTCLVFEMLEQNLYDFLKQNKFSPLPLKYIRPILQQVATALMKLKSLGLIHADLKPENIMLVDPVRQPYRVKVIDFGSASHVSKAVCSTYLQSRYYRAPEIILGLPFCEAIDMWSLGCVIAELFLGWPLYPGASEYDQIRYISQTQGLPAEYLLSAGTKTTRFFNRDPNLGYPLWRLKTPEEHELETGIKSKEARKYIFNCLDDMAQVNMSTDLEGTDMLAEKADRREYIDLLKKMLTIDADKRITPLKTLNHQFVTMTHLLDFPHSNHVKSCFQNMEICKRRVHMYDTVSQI
MAK, construct: Full length, sequence (P20794 whole entry, looked up): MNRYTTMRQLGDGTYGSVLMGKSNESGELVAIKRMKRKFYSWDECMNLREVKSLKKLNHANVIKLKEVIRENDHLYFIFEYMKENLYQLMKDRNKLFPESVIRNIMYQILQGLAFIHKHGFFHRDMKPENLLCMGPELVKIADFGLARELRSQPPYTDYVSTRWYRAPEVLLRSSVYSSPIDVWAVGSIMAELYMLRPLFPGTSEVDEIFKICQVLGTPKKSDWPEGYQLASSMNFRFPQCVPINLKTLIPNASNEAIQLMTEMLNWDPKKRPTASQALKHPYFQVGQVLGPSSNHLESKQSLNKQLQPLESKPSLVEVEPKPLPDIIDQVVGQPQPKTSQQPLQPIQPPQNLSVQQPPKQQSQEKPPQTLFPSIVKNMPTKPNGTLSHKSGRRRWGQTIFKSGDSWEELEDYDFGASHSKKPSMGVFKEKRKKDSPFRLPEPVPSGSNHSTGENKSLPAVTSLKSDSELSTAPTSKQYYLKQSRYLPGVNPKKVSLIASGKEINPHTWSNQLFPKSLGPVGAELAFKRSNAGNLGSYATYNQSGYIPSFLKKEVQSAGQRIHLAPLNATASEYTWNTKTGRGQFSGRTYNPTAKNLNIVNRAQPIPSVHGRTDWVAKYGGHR

HIPK1, construct: aa158-555 (from UniProt Q86Z02)
relative phosphorylation
Details	at +1	at +2	at +3	at +4	at -1	at -2	at -3	at -4	at -5
A fixed	0.711	1.04	0.979	0.83	1.21	2.16	0.93	1	0.905
D fixed	0.165	0.679	0.59	0.795	0.471	0.278	0.49	0.719	0.716
E fixed	0.193	0.512	0.51	0.687	0.485	0.283	0.464	0.762	0.634
F fixed	0.264	1.15	0.885	1.04	0.567	0.398	0.342	0.668	0.793
G fixed	0.896	1.37	1.19	1.14	1.26	0.872	1.27	1.13	0.991
H fixed	0.354	1.23	1.17	1.07	0.881	0.454	0.698	0.884	1.06
I fixed	0.421	0.708	0.92	0.978	0.536	0.999	0.42	0.781	0.883
K fixed	0.503	1.42	0.886	1.12	1.75	0.898	1.13	1.3	1.26
L fixed	0.329	0.928	1.2	1	0.682	0.862	0.525	0.876	0.84
M fixed	0.272	0.815	0.972	1.04	0.916	0.607	0.484	0.793	0.742
N fixed	0.318	1.04	0.826	1.01	0.761	0.735	0.677	0.704	0.928
P fixed	8.97	1.1	2.4	1.14	1.91	2.58	1.07	1.22	1.21
Q fixed	0.399	0.888	0.885	0.981	0.967	0.605	0.71	0.856	0.89
R fixed	1.85	1.55	1.06	1.13	2.49	3.33	6.49	3.08	2.25
V fixed	0.793	0.755	0.863	0.954	0.645	1.17	0.47	0.706	0.794
W fixed	0.284	0.966	0.886	1.16	0.673	0.389	0.426	0.784	0.825
Y fixed	0.276	0.848	0.772	0.917	0.801	0.381	0.397	0.723	1.27
pThr fixed	0.387	0.46	0.541	0.711	0.485	1.05	0.712	0.94	1.05
pTyr fixed	0.453	0.444	0.772	0.757	0.599	0.431	0.644	0.648	1.04

MAK, construct: Full length (from UniProt P20794)
relative phosphorylation
Details	at +1	at +2	at +3	at +4	at -1	at -2	at -3	at -4	at -5
A fixed	2.18	1.07	0.904	0.995	1.19	0.647	0.835	1.16	1.16
D fixed	0.175	1.06	0.653	0.701	0.423	0.165	0.276	0.752	0.824
E fixed	0.155	0.749	0.523	0.677	0.32	0.18	0.251	0.781	0.745
F fixed	0.321	0.762	0.858	0.704	0.498	0.159	0.201	0.633	0.864
G fixed	2.02	1.56	1.51	1.49	1.8	0.63	0.653	1.33	1.5
H fixed	0.308	1.09	1.32	1.19	0.982	0.251	0.428	0.856	0.994
I fixed	0.431	0.736	0.785	0.785	0.315	0.476	0.291	0.647	0.745
K fixed	0.324	1.01	1.37	1.21	1.92	0.779	0.872	1.06	0.989
L fixed	0.394	1.03	1.06	0.853	0.638	0.632	0.356	0.707	0.723
M fixed	0.445	0.979	0.901	0.878	1.07	0.406	0.309	0.803	0.855
N fixed	0.322	1.05	0.924	0.995	0.94	0.313	0.382	0.732	0.726
P fixed	7.71	0.986	1.21	1.36	1.51	8.65	2.32	1.8	1.9
Q fixed	0.393	0.939	0.904	0.898	1.13	0.394	0.513	0.898	1.03
R fixed	0.759	1.08	1.47	1.48	2.24	2.32	8.51	2.58	1.36
V fixed	0.455	0.907	0.978	0.877	0.63	0.631	0.302	0.81	0.821
W fixed	0.329	0.988	0.801	1.01	0.616	0.192	0.238	0.725	0.725
Y fixed	0.274	1	0.831	0.908	0.788	0.178	0.254	0.725	1.04
pThr fixed	0.401	0.534	0.748	0.735	0.265	0.377	0.408	0.851	0.905
pTyr fixed	0.326	0.839	0.706	0.678	0.338	0.212	0.365	0.759	0.912

MAP2K2, construct: aa306-end (from UniProt P36507)
relative phosphorylation
Details	at +1	at +2	at +3	at +4	at -1	at -2	at -3	at -4	at -5
A fixed	0.617	1.06	0.962	0.933	0.978	0.833	1.06	0.961	1.08
D fixed	1.32	0.532	0.643	0.706	0.63	0.982	0.744	1.13	1.01
E fixed	0.689	0.364	0.589	0.62	0.606	0.819	0.803	1.01	0.781
F fixed	1.49	0.907	1.05	0.995	1.19	2.06	1.51	1.05	0.965
G fixed	0.624	0.787	1.22	1.08	1.35	0.713	0.737	1.14	1.07
H fixed	0.836	3.02	1.3	1.08	1.01	2.51	0.945	1.04	0.996
I fixed	1.55	0.963	1.02	0.968	0.735	0.626	1.18	0.808	0.73
K fixed	0.453	0.771	0.833	0.882	1.03	0.674	0.649	0.799	1.01
L fixed	1.46	0.795	0.981	0.927	1.49	0.763	1.4	0.984	0.789
M fixed	1.89	1.13	0.865	0.862	1.32	1.09	1.58	1.05	0.943
N fixed	0.537	0.756	0.744	0.755	0.696	0.768	0.63	0.921	0.962
P fixed	0.347	0.681	0.947	1.02	0.494	0.46	0.691	0.857	1.11
Q fixed	0.625	0.8	0.742	0.79	0.842	0.705	0.585	0.835	0.819
R fixed	0.474	0.847	0.926	0.985	1.34	0.966	0.787	0.929	1.1
V fixed	1.03	0.875	0.933	0.74	0.874	0.562	0.885	0.789	1.14
W fixed	1.36	1.18	1.51	1.96	1.08	1.29	1.38	1.38	1.25
Y fixed	1.7	1.54	1.73	1.69	1.34	1.18	1.44	1.31	1.25
pThr fixed	0.823	0.505	0.611	0.607	0.404	0.431	0.575	0.741	0.914
pTyr fixed	0.886	0.37	0.827	0.673	0.592	0.431	0.675	0.795	0.953

MAP3K6, construct: aa620-950 (from UniProt O95382)
relative phosphorylation
Details	at +1	at +2	at +3	at +4	at -1	at -2	at -3	at -4	at -5
A fixed	1.34	0.898	1.23	0.902	1.33	1.5	1.24	1.03	1.15
D fixed	0.184	0.304	0.38	0.371	0.366	0.366	0.474	0.589	0.603
E fixed	0.255	0.23	0.335	0.36	0.391	0.365	0.561	0.641	0.712
F fixed	0.74	0.907	1.12	1.04	0.584	0.622	0.872	0.93	0.875
G fixed	0.715	0.78	1.05	1.12	1.91	1.18	1.15	1.09	1.15
H fixed	1.4	1.41	1.02	1.26	1.12	1.16	1.35	1.32	1.24
I fixed	1.26	0.568	0.606	1.07	0.588	0.879	0.736	0.725	0.613
K fixed	0.426	1.54	1.26	1.82	1.1	0.972	1.03	1.3	1.32
L fixed	1.36	0.912	1.2	0.797	0.805	0.922	0.913	0.76	0.86
M fixed	1.73	1.01	0.995	0.908	1.13	0.758	0.859	1.31	0.869
N fixed	0.754	0.839	0.793	0.822	0.94	1.41	1.02	0.958	1.03
P fixed	0.354	0.498	1.1	0.931	0.896	1.16	0.774	0.824	1.08
Q fixed	0.844	0.83	0.946	0.931	0.891	1.25	1.08	1.02	1.14
R fixed	0.594	2.05	1.57	1.66	1.72	1.37	1.55	1.18	1.43
V fixed	1.62	0.726	0.984	0.853	0.917	1.35	0.984	1.02	0.996
W fixed	1.38	1.19	1.1	0.955	0.951	0.748	1.25	1.12	1.05
Y fixed	2.05	2.31	1.3	1.19	1.36	0.979	1.17	1.19	0.881
pThr fixed	0.602	0.585	0.681	0.261	0.574	0.9	0.725	0.845	0.914
pTyr fixed	0.421	0.294	0.614	0.356	0.673	0.548	0.787	0.736	0.917
